In publication PMC3865253:

Assays:
[1] = biological target: YFP-ICAC84-224 (rat); test: FRET or BRET; living HEK293T cells co-expressing CFP- and YFP-tagged proteins; three-filter imaging; normalized FRET signal N_FRET (Eq. 1); when FRET occurs N_FRET is greater than 0.2
[2] = biological target: GFP-ICAC1-83 (rat); test: co-IP; 293T cells co-transfected with myc-PICK1 and GFP, GFP-ICA69 or a GFP-tagged truncation; RIPA lysate; precipitated with anti-GFP antibody on protein A-sepharose; blot with anti-myc; quantified as Co-IP myc/Input myc, normalized to the ICA69 group; 4 independent cultures
[3] = biological target: GFP-ICAC84-224 (rat); test: as above
Sequence of GFP-ICAC84-224 (rat) (Q63054 whole entry): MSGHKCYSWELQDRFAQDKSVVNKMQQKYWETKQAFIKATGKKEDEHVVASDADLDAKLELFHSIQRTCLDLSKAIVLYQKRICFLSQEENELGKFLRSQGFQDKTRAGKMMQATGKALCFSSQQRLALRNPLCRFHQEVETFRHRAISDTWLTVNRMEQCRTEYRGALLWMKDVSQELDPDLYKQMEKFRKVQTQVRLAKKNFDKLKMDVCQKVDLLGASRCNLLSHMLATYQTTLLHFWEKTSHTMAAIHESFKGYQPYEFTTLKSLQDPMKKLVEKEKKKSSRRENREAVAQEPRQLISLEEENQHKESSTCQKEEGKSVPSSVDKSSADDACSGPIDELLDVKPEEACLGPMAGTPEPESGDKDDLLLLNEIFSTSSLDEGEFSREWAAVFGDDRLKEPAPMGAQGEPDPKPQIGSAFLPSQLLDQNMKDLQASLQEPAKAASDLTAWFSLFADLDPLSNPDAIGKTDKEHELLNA

Sequence of YFP-ICAC84-224 (rat) (Q63054 whole entry, the tested form may be a part): as the sequence (Q63054 whole entry) above

N FRET [1] | percentage of precipitated protein normalized to ICA69 group [2] [%] | percentage of precipitated protein normalized to ICA69 group [3] [%] | Substance
0.86 |  |  | CFP-PICK1 (from UniProt Q9EP80 1-416) (natural protein)
 | 11 | 66 | myc-PICK1 (protein interacting with C-kinase 1) (from UniProt Q9EP80 1-416) (natural protein)
